Results on two molecules are retold here after patent CN101671397A (UNIV SICHUAN, dated 2010).

The target of experiment [1] is T1, epidermal growth factor receptor (EGFR) on human lung cancer cell line A549 (human, UniProt P00533 25-1210).
T1 construct: whole, on cells; also called 表皮生长因子受体
Briefly: immunofluorescence and flow cytometry on A549 cells (summary).

Experiment [2] has as its target T1, epidermal growth factor receptor (EGFR) …. The experiment can be described thus: flow cytometry on cells (A549), detected with rabbit antiserum and goat anti-rabbit IgG-FITC. (In general: In flow cytometry, cells or beads pass a laser one at a time.)

B1: SCFV(Anti-EGFR)/Gelonin recombinant immunotoxin (抗EGFR单链抗体融合Gelonin重组免疫毒素) (other)
chain: EVQLQQSGAELMKPGASVKISCKATGYTFSSYWIEWVKQRPGHGLEWIGEILPGSKKTNYNEKFKGKATFTADTSSNTAYMQFSSLTSEDSAVYYCARYYYRNDDYGMDYWGQGTTVTVSSGGGGSGGGGSGGGGSDIVMSQSPKSMSMSVGERVTLTCKASENVVTYVSWYQQKPEQSPKLLIYGASNRYTGVPDRFTGSGSATDFTLTISSVQAEDLADYHCGQGCSYPYTFGGGTKLEIKGSGGGGSGGGGSGLDTVSFSTKGATYITYVNFLNELRVKLKPEGNSHGIPLLRKKCDDPGKCFVLVALSNDNGQLAEIAIDVTSVYVVGYQVRNRSYFFKDAPDAAYEGLFKNTIKTRLHFGGSYPSLEGEKAYRETTDLGIEPLRIGIKKLDENAIDNYKPTEIASSLLVVIQMVSEAARFTFIENQIRNNFQQRIRPANNTISLENKWGKLSFQIRTSGANGMFSEAVELERANGKKYYVTAVDQVKPKIALLKFVDKDPK
notes: also called ScFv(Anti-EGFR)/rGel
Take B1: the binding result in experiment [1] is given as “binds”.

B2: recombinant Gelonin (重组Gelonin) (enzyme)
chain: GLDTVSFSTKGATYITYVNFLNELRVKLKPEGNSHGIPLLRKKCDDPGKCFVLVALSNDNGQLAEIAIDVTSVYVVGYQVRNRSYFFKDAPDAAYEGLFKNTIKTRLHFGGSYPSLEGEKAYRETTDLGIEPLRIGIKKLDENAIDNYKPTEIASSLLVVIQMVSEAARFTFIENQIRNNFQQRIRPANNTISLENKWGKLSFQIRTSGANGMFSEAVELERANGKKYYVTAVDQVKPKIALLKFVDKDPK
notes: also called rGel
Regarding B2, the binding result in experiment [2] is listed as “no binding (tested: 100umol/L)”.
